Measured values from the nanobody polyreactivity screen of Harvey et al. (2022).

Assay: yeast display, Sf9 membrane polyspecificity reagent, FACS + sequencing; frameworks hold sequencing errors
Procedure, shortened: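 Nanobodies from a synthetic yeast display library (Saccharomyces cerevisiae BJ5465), induced 36–48 hours with galactose, were stained 1 hour at 4 °C with 10% biotinylated, detergent-solubilized Sf9 membrane reagent, enriched on streptavidin microbeads, then FACS-sorted. Anti-HA (expression) and streptavidin (reagent binding) fluorescence set low and high (top ~1%) gates. Polyreactivity labels come from the gate of origin. Genes were colony-PCR amplified, MiSeq 2 × 250 sequenced and filtered by CDR length.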

Sequence	polyreactivity (PSR sort gate)
QVQLVESGGGLVQAGGSLRLSCAASGNIFRIYAMGWYRQAPGKERALVAAITSRGAITNYADSVKGRFTISRDYAKNTVYLQMISLKPEDTAVYYCAASYRRLTGVGADEYWGQGTQVTVSS	high polyreactivity
QVQLVESGGGLVQAGGSLRLSCAASGNIFRKNAMGWYRQAPGKERELVAAITSVGSTNYADSVKGRFTISRDNAKNTVYLQMTSLKPEDTAVYYCDARSQIYYRYRSYGYWGQGTQVTVSS	high polyreactivity
QVQLVESGGGLVQAGGSLRLSCAASGNIFRNNAMGWYRQAPGKERELVAAISRGGSTYYADSVKGRFTISRDNAKNTVYLQMNSLKPEDTAVYYCNKYSSRAYNYWGQGTHVTVSS	high polyreactivity
QVQLVESGGGLVQAGGSLRLSCAASGNIFRSYAMGWYRQAPGKERELVAAISSSDDSTYYADSVKGRFTISRDNAKNTVYLQMNSLKPEDTAVYYCAADGWSWYKGYVGDDMDYWGQGTQVTVSS	low polyreactivity
QVQLVESGGGLVQAGGSLRLSCAASGNIFSAYAMGWYRQAPGTERELVAAISRSVTITYYADSVKGRFTISRDNAKKTDYLQMNSLKPEDTAVYYCAARDYHYPKFGYCGQGTQVTVSS	high polyreactivity
QVQLVESGGGLVQAGGSLRLSCAASGNIFSDNAMGWYRQAPGKERELVATITSSGVSTYYADSVKGRFTISRDNAKNTVYLQMNSLKPEDTAVYYGAVQGFRYHSREYDYWGQGTQVTVSS	low polyreactivity
QVQLVESGGGLVQAGGSLRLSCAASGNIFSDYAMGWYRPAPGKERELVAAISSGGNTNYADSVKGRFTISRDNAKNTVYLQMNSLKPEDTAVYYCAADPGYYVSAYDYWGQGTQVTVSS	low polyreactivity
QVQLVESGGGLVQAGGSLRLSCAASGNIFSFNDVGGSRQAPGNEREWVAAITSSDSTNYADSVKGRFTISRDNAKNTVYLQMNSLKPEDTAVYYCATEILTAARDTVVYQFYLGYYYWGQGTQVTVSS	low polyreactivity
QVQLVESGGGLVQAGGSLRLSCAASGNIFSFYAMGWYRQAPGKERELVAAINWSGGDTYYADSVKGRFTISRDNAKNTVYLQMNSLKPEDTAVYYCAAEYYYQYYPGGYDYWGQGTQVTVSS	high polyreactivity
QVQLVESGGGLVQAGGSLRLSCAASGNIFSRYAMGWYRKAPGKERELVAAISKSGGSTYYADSVKGRFTISRDNAKNTVYLQMNSLKPEDSAVYYCAAYSFFLGYPEFDYWGQGTQVTVSS	high polyreactivity
QVQLVESGGGLVQAGGSLRLSCAASGNIFSSNAMGWYRQAPGKERELVAAITRSGGSTYYADSVKGRFTISRDNSKKTVYLLMNSLKPEDTAFYYCAARHYPRNSWGYDYWGQGSQVTVSS	high polyreactivity
QVQLVESGGGLVQAGGSLRLSCAASGNIFSVYAMGWYRQAPGKERELVAAISSSGGRTYYADSVKGRFTISRENSKNTVYLQMNSLKPEDTAVYYCAARSYTGQFGYWGQGTQVTVSS	high polyreactivity
QVQLVESGGGLVQAGGSLRLSCAASGNIFSYYAMGWYRQAPGKERELVAAIYTGGSTYYADSVKGRFTISRDNAKNTVYLQMNSLKPEDTAVYYCAARGLKLRQDYDYWGQGTQVTVSS	low polyreactivity
QVQLVESGGGLVQAGGSLRLSCAASGNIFTFNAMGWYRQAPGKERELVAAIRSGGSTNYADSVKGRFTISRDNAKNTVYLQMNSLIPEDTAVYYCAAKRYVQGYVYRFGYWGQGTQVTVSS	high polyreactivity
QVQLVESGGGLVQAGGSLRLSCAASGNIFTGNAMGWYRQAPGKERELVAAISSGGGSTYYADSVKGRFTISRDNAKNTVYLQMNSLKPEDTAVYYCAASRVRYSYGYPYYYWGQGTQVTVSS	high polyreactivity
QVQLVESGGGLVQAGGSLRLSCAASGNIFTYYVMGWYRQAPGKESELVAAISRRGGSTYYADSVKGRFTISRDNAKNTVYLQMNSLNPEDTAVYYCADRWYKWSTFSGWSRYDYWGQGTQVTVSS	high polyreactivity
QVQLVESGGGLVQAGGSLRLSCAASGNIFVAYAMGWYRQAPGKERELVAAITYNGGRTYYADSVKGRFTISRDNAKNTVYLQMNSLKPEDTAVYYCAARGYNPYGRKVGYWGQGTQVTVSS	high polyreactivity
QVQLVESGGGLVQAGGSLRLSCAASGNIFVGNAMGWYRQAPGKERELVAAIRRSGGTTYYADSVKGRFTISRDIAKNTVYIQMNSLKPEDTAVYYSAASRPYQGDYWGQGTQVTVSS	low polyreactivity
QVQLVESGGGLVQAGGSLRLSCAASGNIFVNYAMGWYRQAPGKERELVASINYNGGNTYYADSVKGRFTISRDNAKNTVYLQMNSLKPEDTAVYYCAADLPESPESYYDTDDYWGQGTQVTVSS	low polyreactivity
QVQLVESGGGLVQAGGSLRLSCAASGNIFVPSAMGWYRQEPGKERELVAAINVGGSTNYADSLNGRFTNSRDNPKNTVYLQMNSVKPEDTAVNYFGAVWYFLSLWYDYWGHGTQVTVSS	high polyreactivity
QVQLVESGGGLVQAGGSLRLSCAASGNIFYAYAMGWYRQAPGKEREFVAAITKNGGSTYYADSVKGRFTISRDNAKNTVYLQMISLKPEYTAVYYCTAGGVYPRFTFLEQGYEMDYWGQGTQVTVSS	low polyreactivity
QVQLVESGGGLVQAGGSLRLSCAASGNIFYAYDMGWYRQAPGKERELVAAITNGDSTDYADSVKGRFTISRDNAKNTVYLQMNSLKPEDTAVYYCNAYYLPEPWALGGSQYDYWGQGTQVTVSS	low polyreactivity
